As a reminder, the Kd is a measure of binding affinity in units of concentration.

The values that follow come from paper PMC12170943.

For this data set, the system named is OmpRAc (phosphorylated by EnvZAcC) (Acidovorax citrulli xjL12 (group II)). Kind of data set: MST. Conditions: EMSA: 10 mM Tris-HCl pH 7.4, 50 mM KCl, 50 mM MgCl2, 5% glycerol, room temperature 20 min, 50 ng probe in 20 uL, MST: 50 mM Tris-HCl pH 7.4, 150 mM NaCl. On the technique in general: Mobility shift assays separate free from complexed probe on a gel.

Substance PhrpG Cy5 probe (MST) registered a Kd of 5.72 µM.
